From US20180079822A1 (UNITED STATES OF AMERICA AS REPRESENTED BY THE SECRETARY OF …, published 2018)
Changes are numbered by the printed parent chain. Numbers in names are those of the source.

B1: M24E (VHH)
VHH: DVQLQASGGGLVQAGGSLRLSCAASGSTFSIKHHGWYRRAPGNQREWVAGISSENITNVAEAVKGRFTISRDNAKNTVYLQMNSLKVEDTAVYYCYAQDNDYRFLHRFWGQGTQVTVSL
notes: also called bt-M24E; anti-CD20 sdAb M24E
B2: M112D (VHH)
VHH: B1 VHH with G15E, S30G, D101N
notes: also called bt-M112D; anti-CD20 sdAb M112D
B3: M28C (VHH)
VHH: B1 VHH with S52N, E61G, Y94F
notes: also called bt-M28C; anti-CD20 sdAb M28C

Target: T1, Hoc (T4 phage, UniProt P18056 1-376, limits assumed)
T1 construct: Purified Hoc used as control for the fusion partner; also called outer capsid protein Hoc of T4 phage
Test: SPR

T1 sequence (P18056 whole entry, the tested form may be a part): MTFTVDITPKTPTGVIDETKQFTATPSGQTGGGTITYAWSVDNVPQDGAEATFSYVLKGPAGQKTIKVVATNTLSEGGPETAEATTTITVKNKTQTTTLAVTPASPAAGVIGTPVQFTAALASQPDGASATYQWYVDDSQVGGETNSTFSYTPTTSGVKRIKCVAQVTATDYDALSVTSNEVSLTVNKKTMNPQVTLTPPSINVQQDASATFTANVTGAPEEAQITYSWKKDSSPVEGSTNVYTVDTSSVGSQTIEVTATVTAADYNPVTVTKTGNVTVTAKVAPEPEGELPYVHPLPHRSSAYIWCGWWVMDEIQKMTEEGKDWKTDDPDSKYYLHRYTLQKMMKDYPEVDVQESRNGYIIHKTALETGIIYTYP

Binder | Kd | koff | kon
B1 | 230 nM | 0.046 s⁻¹ | 200000 M⁻¹ s⁻¹
B2 | 2100 nM | 0.32 s⁻¹ | 150000 M⁻¹ s⁻¹
B3 | 5300 nM | 0.36 s⁻¹ | 68000 M⁻¹ s⁻¹

Target: T2, CD20-Hoc fusion protein (human; T4 phage, UniProt P11836 142-187; P18056 1-376, limits assumed)
T2 construct: also called Hoc-CD20; Hoc-CD
Test: SPR

T2 sequence (P11836 142-187, tags or fused parts left off): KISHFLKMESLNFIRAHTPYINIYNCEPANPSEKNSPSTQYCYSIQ

Binder | Kd | koff | kon
B1 | 5.7 nM | 0.0043 s⁻¹ | 750000 M⁻¹ s⁻¹
B2 | 26 nM | 0.007 s⁻¹ | 280000 M⁻¹ s⁻¹
B3 | 15 nM | 0.0045 s⁻¹ | 300000 M⁻¹ s⁻¹

Target: T2, CD20-Hoc fusion protein
Test: SPR; KD on Hoc divided by KD on Hoc-CD20

Binder | Ratio Hoc KD/Hoc-CD20 KD
B1 | 40 ratio
B2 | 81 ratio
B3 | 353 ratio

Target: T2, CD20-Hoc fusion protein
Test: SPR binding kinetics

Binder | differential binding to CD20-Hoc fusion against Hoc
B1 | ~1000 fold
B2 | ~100 fold
B3 | ~1000 fold
